This note sets out measurements from patent US20120114652A1 (AbbVie / Abbott, published 2012).

Experiment [1] concerns the target human PAI-1, active, wild-type, non-glycosylated (E. coli-derived) (human, UniProt P05121 24-402). As to the kind of experiment: cell-based or functional assay.
In experiment [2] the target is cynomolgus PAI-1 (cynomolgus, UniProt P05121 24-402 (human entry), limits assumed). Briefly: cell-based or functional assay.
The target in experiment [3] is T1, rat PAI-1 (rat, UniProt P20961 24-402).
T1 sequence: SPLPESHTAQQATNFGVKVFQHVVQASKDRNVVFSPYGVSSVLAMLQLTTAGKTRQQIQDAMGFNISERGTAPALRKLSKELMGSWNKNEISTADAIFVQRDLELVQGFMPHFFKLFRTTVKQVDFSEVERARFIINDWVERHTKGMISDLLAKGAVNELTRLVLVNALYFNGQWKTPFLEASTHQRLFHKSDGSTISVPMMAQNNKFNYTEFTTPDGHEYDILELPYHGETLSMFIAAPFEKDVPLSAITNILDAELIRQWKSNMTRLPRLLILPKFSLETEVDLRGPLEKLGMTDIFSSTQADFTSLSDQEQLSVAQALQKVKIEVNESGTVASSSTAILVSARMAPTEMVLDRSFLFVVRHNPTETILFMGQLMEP
As to the kind of experiment: cell-based or functional assay.

Experiment [4] addresses T2, dog PAI-1 (bacterially-derived active dog PAI-1) (dog).
T2 construct: also called canine PAI-1
Briefly: IgG competition ELISA (DELFIA) against biotinylated human PAI-1, one-site binding analysis; column Dog. For orientation: ELISA stands for enzyme-linked immunosorbent assay.

Experiment [5] concerns the target T3, rabbit PAI-1 (rabbit).
T3 chain: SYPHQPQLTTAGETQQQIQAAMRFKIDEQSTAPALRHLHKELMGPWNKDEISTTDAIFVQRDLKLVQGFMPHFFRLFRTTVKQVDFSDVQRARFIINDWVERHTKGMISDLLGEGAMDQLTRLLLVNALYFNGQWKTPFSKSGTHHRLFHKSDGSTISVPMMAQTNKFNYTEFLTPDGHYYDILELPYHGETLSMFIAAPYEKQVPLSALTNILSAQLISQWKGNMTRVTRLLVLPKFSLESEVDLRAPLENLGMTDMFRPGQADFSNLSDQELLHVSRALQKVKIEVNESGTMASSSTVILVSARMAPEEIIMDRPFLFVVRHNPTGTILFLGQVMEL
As to the kind of experiment: IgG competition ELISA (DELFIA) against biotinylated human PAI-1, one-site binding analysis; column Rabbit.

The target of experiment [6] is PAI-2 (UniProt P05120 1-415, limits assumed). Briefly: competition ELISA (DELFIA): PICK167_A01 IgG1 coated on the plate, biotinylated human PAI-1, titration of the unlabelled test antigen.
The target in experiment [7] is T4, PAI-3 (UniProt P05154 26-406, limits assumed).
T4 sequence (looked up): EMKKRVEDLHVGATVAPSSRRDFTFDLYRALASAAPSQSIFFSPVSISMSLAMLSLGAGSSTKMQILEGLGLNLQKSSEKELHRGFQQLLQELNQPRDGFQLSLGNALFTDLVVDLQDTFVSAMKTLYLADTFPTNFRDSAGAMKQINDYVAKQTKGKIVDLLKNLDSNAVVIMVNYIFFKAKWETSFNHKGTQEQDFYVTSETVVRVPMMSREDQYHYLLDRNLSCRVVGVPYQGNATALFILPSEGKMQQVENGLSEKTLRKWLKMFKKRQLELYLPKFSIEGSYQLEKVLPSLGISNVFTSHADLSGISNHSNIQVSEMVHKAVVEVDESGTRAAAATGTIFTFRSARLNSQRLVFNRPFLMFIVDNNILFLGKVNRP
The experiment is described as above.

For experiment [8], the target named is antithrombin III (UniProt P01008 33-464). The experiment is described as above.
The target in experiment [9] is T5, α1-antitrypsin (UniProt P01009 25-418).
T5 construct: also called alpha-1-antitrypsin
The description is as above.

For experiment [10], the target named is T6, α1-antichymotrypsin (UniProt P01011 24-423).
T6 sequence (looked up): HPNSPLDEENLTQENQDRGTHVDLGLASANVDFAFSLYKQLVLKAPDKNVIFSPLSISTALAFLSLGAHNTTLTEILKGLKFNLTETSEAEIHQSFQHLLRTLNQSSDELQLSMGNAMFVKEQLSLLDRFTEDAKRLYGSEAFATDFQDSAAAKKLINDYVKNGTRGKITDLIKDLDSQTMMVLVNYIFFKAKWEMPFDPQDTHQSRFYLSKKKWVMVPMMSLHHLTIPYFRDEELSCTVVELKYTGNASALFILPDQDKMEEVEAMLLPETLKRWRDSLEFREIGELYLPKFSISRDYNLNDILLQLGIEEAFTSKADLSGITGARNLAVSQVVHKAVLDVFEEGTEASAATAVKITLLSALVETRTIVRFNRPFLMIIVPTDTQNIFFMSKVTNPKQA
The description is as above.

Experiment [11] concerns the target T7, α2-antiplasmin (UniProt P08697 40-491, limits assumed).
T7 sequence (looked up): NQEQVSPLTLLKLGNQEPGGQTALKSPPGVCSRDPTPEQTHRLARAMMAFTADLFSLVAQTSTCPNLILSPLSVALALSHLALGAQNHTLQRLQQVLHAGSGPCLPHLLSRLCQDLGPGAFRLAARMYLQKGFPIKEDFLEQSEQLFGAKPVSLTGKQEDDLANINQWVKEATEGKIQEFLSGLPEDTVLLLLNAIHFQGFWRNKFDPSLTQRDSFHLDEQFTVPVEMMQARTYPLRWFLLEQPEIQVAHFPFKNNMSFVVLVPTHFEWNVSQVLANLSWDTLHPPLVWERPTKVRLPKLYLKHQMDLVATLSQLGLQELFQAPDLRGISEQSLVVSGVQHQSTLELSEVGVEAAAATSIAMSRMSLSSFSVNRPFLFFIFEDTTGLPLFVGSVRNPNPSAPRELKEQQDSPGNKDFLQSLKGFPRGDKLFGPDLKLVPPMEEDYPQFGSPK
The description is as above.

B1: PICK167_A01 IgG1 (antibody, V domains shown)
VH: QVQLQQSGAEVKKPGSSVKVSCKASGGTFSSYAISWVRQAPGQRLEWMGGIIPTFGTANYAQKFQGRVTITADESTSTAYMELSGLRSEDTAVYYCARERRQWLEGHFDYWGRGTPVTVSS
VL: DIQMTQSPSFLSASIGDRVTITCRASEGIYHNLAWYQQKPGKAPKLLIYKASSLASGAPSRFSGSRSGTDFTLTISSLQPDDFATYYCQQYSNYPLTFGGGTKLEIKR
As to B1, the entries for the “IC50, PAI-1:tPA functional assay” value in experiment [1], in experiment [2] and in experiment [3] were 1.34 nM, 0.8 nM and 1.97 nM, respectively. Besides, the “fold difference in observed binding KD compared to human wild-type active” value in [4] came out at 2.7 fold; in experiment [5], 41.5 fold. Besides, the binding result in experiment [6], in experiment [7], in experiment [8], in experiment [9], in experiment [10] and in experiment [11] was “no binding (tested: log M about -6.3 (about 5e-7 M))” throughout.
